Assay results published in patent US20220267460A1.

Columns and labels:
[1] = molecular target: FcγRIIIa (UniProt P08637); experiment: cell-based or functional assay
[2] = molecular target: human FcγRIIa-H variant (Histidine at amino acid 131) (human) (UniProt P12318); experiment: cell-based or functional assay
human FcγRIIa-H variant (Histidine at amino acid 131) (human), sequence (P12318 34-317, change not shown): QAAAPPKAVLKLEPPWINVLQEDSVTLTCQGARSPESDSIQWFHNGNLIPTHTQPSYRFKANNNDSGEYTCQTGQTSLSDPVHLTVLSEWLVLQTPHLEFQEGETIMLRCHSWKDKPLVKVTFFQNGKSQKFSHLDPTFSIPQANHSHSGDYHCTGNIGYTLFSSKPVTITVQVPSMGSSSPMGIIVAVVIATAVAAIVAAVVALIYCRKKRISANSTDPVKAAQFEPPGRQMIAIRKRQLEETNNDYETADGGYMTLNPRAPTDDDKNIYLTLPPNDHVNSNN

FcγRIIIa, sequence (P08637 17-254 F176V limits assumed): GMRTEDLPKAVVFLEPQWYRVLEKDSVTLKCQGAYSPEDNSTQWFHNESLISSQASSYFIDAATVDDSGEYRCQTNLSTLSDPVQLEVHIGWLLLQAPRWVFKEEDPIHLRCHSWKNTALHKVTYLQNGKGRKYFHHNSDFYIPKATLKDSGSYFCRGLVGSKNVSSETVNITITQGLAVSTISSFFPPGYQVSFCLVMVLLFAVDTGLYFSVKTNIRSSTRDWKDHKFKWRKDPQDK

Row | EC50 (nM) Mean, FcγRIIIa signaling in ADCC reporter assay (HEK-PD-L1 target cells, Jurkat/FcγRIIIa effector cells, luciferase) [1] [nM] | EC50 (nM) Mean, FcγRIIIa signaling in ADCC reporter assay (Raji target cells, Jurkat/FcγRIIIa effector cells, luciferase) [1] [nM] | EC50 (nM) Mean, FcγRIIa signaling in ADCP reporter assay (Raji target cells, Jurkat/FcγRIIa-H effector cells, luciferase) [2] [nM] | Substance
1 | 0.049 |  |  | avelumab (Bavencio) monoclonal antibody, fucosylated
2 |  | 0.08 | 7.1 | obinutuzumab monoclonal antibody, fucosylated
